1 substance from publication PMC8178248 can be followed below.

Several values for one entry are separate records, joined by “and”; a condition that tells them apart may be missing. Identical values can stand only once.

In assay [1] the target is DrdV restriction-modification enzyme (Deinococcus wulumuqiensis 479). Put plainly: cryo-EM structure.
For assay [2] the target is unchanged. Put plainly: SEC.
For assay [3] the target is unchanged. Put plainly: negative stain EM.
Assay [4] has the same target. Nature of the assay: cryo-EM structure. The source holds these as a separate data set.

Take DrdV restriction-modification enzyme: the stoichiometry N in assay [1] is 2; in assay [2] it was 4; in assay [3], 4; in assay [4], 3 and 4.
